According to patent US20060199194A1:

Tests used:
[1] = biological target: TAU-412 target protein (human) (UniProt P10636); test: sandwich Immuno Q-Amp assay: capture MN1010, TAU-412 10 ng per well, biotin MN1000 reporter, avidin-biotin-MNVplus template, Q-beta replicase, SYBR Green fluorescence; Startingblock blocking
[2] = biological target: TAU-412 target protein (human) (UniProt P10636); test: sandwich Immuno Q-Amp assay: capture MN1010, TAU-412 10 ng per well, biotin MN1000 reporter, avidin-biotin-MNVplus template, Q-beta replicase, SYBR Green fluorescence; Superblock blocking

UniProt P10636, sequence (P10636 other isoform, or with tags, fused parts or gaps): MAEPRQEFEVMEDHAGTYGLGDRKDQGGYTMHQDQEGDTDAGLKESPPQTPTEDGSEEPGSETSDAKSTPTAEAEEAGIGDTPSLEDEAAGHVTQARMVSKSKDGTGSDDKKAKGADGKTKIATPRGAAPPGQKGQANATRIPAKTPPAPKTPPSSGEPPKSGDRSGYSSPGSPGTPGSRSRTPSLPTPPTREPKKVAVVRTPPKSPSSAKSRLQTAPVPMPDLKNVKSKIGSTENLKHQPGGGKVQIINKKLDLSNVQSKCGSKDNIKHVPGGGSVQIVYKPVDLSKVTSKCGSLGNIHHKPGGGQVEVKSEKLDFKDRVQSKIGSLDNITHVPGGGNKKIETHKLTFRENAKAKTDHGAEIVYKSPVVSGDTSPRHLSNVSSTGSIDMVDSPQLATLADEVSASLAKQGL

Substance: anti-TAU, biotinylated antibody MN-1000 (Pierce, #MN1000B)
- RT (response time, starting block blocking) [1]: 13.5 min
- RT (response time, Superblock blocking) [2]: 15 min
